# Laboratory results published in patent publication US20220259318A1 (Hoffmann-La Roche, published 2022).
# T1: BCMA (UniProt Q02223 1-184, limits assumed)
# T1 sequence (looked up): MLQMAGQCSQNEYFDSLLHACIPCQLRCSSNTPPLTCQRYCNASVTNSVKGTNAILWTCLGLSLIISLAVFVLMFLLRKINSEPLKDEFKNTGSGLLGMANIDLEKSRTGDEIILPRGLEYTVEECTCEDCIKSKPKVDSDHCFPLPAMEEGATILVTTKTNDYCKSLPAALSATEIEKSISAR
# B1: 5E11(VH1c + VL2b)-C122-TCB (P1AE6625) (bispecific antibody, human IgG1, kappa, L234A L235A)
# light 1: EIVLTQSPGTLSLSPGERATLSCRASQSVSISGINLMNWYQQKPGQQPKLLIYHASILASGIPDRFSGSGSGTDFTLTISRLEPEDFAVYYCQQTRESPLTFGQGTRLEIKRTVAAPSVFIFPPSDRKLKSGTASVVCLLNNFYPREAKVQWKVDNALQSGNSQESVTEQDSKDSTYSLSSTLTLSKADYEKHKVYACEVTHQGLSSPVTKSFNRGEC
# light 2: EVQLLESGGGLVQPGGSLRLSCAASGFQFSSYAMNWVRQAPGKGLEWVSRIRSKYNNYATYYADSVKGRFTISRDDSKNTLYLQMNSLRAEDTAVYYCVRHTTFPSSYVSYYGYWGQGTLVTVSSASVAAPSVFIFPPSDEQLKSGTASVVCLLNNFYPREAKVQWKVDNALQSGNSQESVTEQDSKDSTYSLSSTLTLSKADYEKHKVYACEVTHQGLSSPVTKSFNRGEC
# heavy 1: EVQLLESGGGLVQPGGSLRLSCAASGFTFSKYAMAWVRQAPGKGLEWVASISTGGVNTYYADSVKGRFTISRDNSKNTLYLQMNSLRAEDTAVYYCATHTGDYFDYWGQGTMVTVSSASTKGPSVFPLAPSSKSTSGGTAALGCLVEDYFPEPVTVSWNSGALTSGVHTFPAVLQSSGLYSLSSVVTVPSSSLGTQTYICNVNHKPSNTKVDEKVEPKSCDKTHTCPPCPAPEAAGGPSVFLFPPKPKDTLMISRTPEVTCVVVDVSHEDPEVKFNWYVDGVEVHNAKTKPREEQYNSTYRVVSVLTVLHQDWLNGKEYKCKVSNKALGAPIEKTISKAKGQPREPQVCTLPPSRDELTKNQVSLSCAVKGFYPSDIAVEWESNGQPENNYKTTPPVLDSDGSFFLVSKLTVDKSRWQQGNVFSCSVMHEALHNHYTQKSLSLSPGK
# heavy 2: not shown
# notes: 2+1 TCB: LC1 (anti-GPRC5D), LC2 (anti-CD3 crossed), HC1 Fc hole, HC2 Fc knob
# B2: BCMA-TCB (bispecific antibody, human IgG1, kappa, L234A L235A)
# light 1: EIVLTQSPGTLSLSPGERATLSCRASQSVSAYYLAWYQQKPGQAPRLLMYDASIRATGIPDRFSGSGSGTDFTLTISRLEPEDFAVYYCQQYERWPLTFGQGTKVEIKRTVAAPSVFIFPPSDRKLKSGTASVVCLLNNFYPREAKVQWKVDNALQSGNSQESVTEQDSKDSTYSLSSTLTLSKADYEKHKVYACEVTHQGLSSPVTKSFNRGEC
# light 2: EVQLLESGGGLVQPGGSLRLSCAASGFTFSTYAMNWVRQAPGKGLEWVSRIRSKYNNYATYYADSVKGRFTISRDDSKNTLYLQMNSLRAEDTAVYYCVRHGNFGNSYVSWFAYWGQGTLVTVSSASVAAPSVFIFPPSDEQLKSGTASVVCLLNNFYPREAKVQWKVDNALQSGNSQESVTEQDSKDSTYSLSSTLTLSKADYEKHKVYACEVTHQGLSSPVTKSFNRGEC
# heavy 1: EVQLLESGGGLVQPGGSLRLSCAASGFTFSSYAMNWVRQAPGKGLEWVSAITASGGSTYYADSVKGRFTISRDNSKNTLYLQMNSLRAEDTAVYYCARYWPMSLWGQGTLVTVSSASTKGPSVFPLAPSSKSTSGGTAALGCLVEDYFPEPVTVSWNSGALTSGVHTFPAVLQSSGLYSLSSVVTVPSSSLGTQTYICNVNHKPSNTKVDEKVEPKSCDKTHTCPPCPAPEAAGGPSVFLFPPKPKDTLMISRTPEVTCVVVDVSHEDPEVKFNWYVDGVEVHNAKTKPREEQYNSTYRVVSVLTVLHQDWLNGKEYKCKVSNKALGAPIEKTISKAKGQPREPQVCTLPPSRDELTKNQVSLSCAVKGFYPSDIAVEWESNGQPENNYKTTPPVLDSDGSFFLVSKLTVDKSRWQQGNVFSCSVMHEALHNHYTQKSLSLSPGK
# heavy 2: not shown
# What was measured:
# human GPRC5D [1] = target: T2, human GPRC5D (human, UniProt Q9NZD1 1-345); assay: flow cytometry on NCI-H929 cells; paragraph 550 says these values were falsely calculated by a factor of 10 (too low)
# T2 construct: also called G protein-coupled receptor class C group 5 member D; hu GPCR5D
# T2 sequence (Q9NZD1 whole entry): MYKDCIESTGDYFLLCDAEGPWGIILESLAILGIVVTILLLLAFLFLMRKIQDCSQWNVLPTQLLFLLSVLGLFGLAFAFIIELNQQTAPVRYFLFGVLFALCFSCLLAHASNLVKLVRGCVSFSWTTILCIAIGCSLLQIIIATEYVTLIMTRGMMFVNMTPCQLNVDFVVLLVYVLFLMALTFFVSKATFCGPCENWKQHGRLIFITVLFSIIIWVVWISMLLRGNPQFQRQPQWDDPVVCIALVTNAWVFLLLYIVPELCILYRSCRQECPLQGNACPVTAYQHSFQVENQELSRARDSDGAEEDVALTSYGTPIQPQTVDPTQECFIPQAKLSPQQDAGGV
# Method: (§1) To measure the binding to GPRC5D, we performed a flow cytometry-based binding assay on reported multiple myeloma cell lines (Lombardi et al., Molecular characterization of human multiple myeloma cell lines by integrative genomics: insights into the biology of the disease; Genes Chromosomes Cancer. 2007 March; 46(3):226-38). The cell line NCI-H929 (ATCC® CRL-9068) was cultured in RPMI 1640 with Glutamax medium (Gibco) supplemented with 10% FBS, 1× Penicillin/Streptomycin (Gibco), 1× Sodium Pyruvate (Gibco) and 50 μM beta-Mercaptoethanol (Gibco). Jurkat-NFAT reporter cells (a CD3-expressing human acute lymphatic leukemia reporter cell line with a NFAT promoter, GloResponse Jurkat NFAT-RE-luc2P, Promega #CS176501) were cultured in RPMI 1640, containing 2 g/l Glucose, 2 g/l NaHCO₃, 10% FCS, 25 mM HEPES, 2 mM L-Glutamine, 1×NEAA, 1× Sodium-pyruvate and 200 μg/ml Hygromycin B.
# (§2) Flow cytometry acquisition was performed on a custom-designed BD Biosciences Fortessa and analyzed using BD Diva. EC50 values were calculated, using GraphPad Prism software.
# human GPRC5D [2] = target: T2, human GPRC5D; assay: flow cytometry on OPM-2 cells, assay replicate 3
# Method: (§3) Cells were re-suspended in PBS at 0.5 Mio cells per ml. Next, 0.05 Mio cells were plated per well of a round-bottom 96-well-plate, centrifuged and supernatants were discarded. Cells were stained with zombie aqua viability stain (BioLegend #423102, pre-diluted 1:400), containing Fc blocking (BioLegend #422302, prediluted 1:400) for 20 minutes in a total volume of 50 ul per well. […] Assay plates were centrifuged and supernatants were discarded.
# (§4) Thereafter, cells were resuspended by smooth vortexing and incubated for another 30 min at 4° C. in a total of 25 μl per well, containing 500 nM of the secondary antibody (aPGLALA mulG2b Alexa 647, produced inhouse) in FACS buffer. Cells were washed once and analyzed on a BD flow cytometer, equipped with FACS Diva. Binding curves and EC50 values were obtained using GraphPadPrism6. The EC50 values of assay replicate 1 correspond to the graphs shown in FIG. 25A, FIG. 25B and FIG. 25C. The EC50 values of assay replicate 2 correspond to the graphs shown in FIG. 25D, FIG. 25E and FIG. 25F. The EC50 values of assay replicate 3 correspond to the graphs shown in FIG. 25G, FIG. 25H and FIG. 25I.
# human GPRC5D [3] = target: T2, human GPRC5D; assay: flow cytometry on OPM-2 cells, assay replicate 2
# Method: as §3, §4
# human CD3 = target: T3, human CD3 (human, UniProt P07766 23-207); assay: flow cytometry on Jurkat-NFAT cells; paragraph 550 says these values were falsely calculated by a factor of 10 (too low)
# T3 construct: Expressed on Jurkat-NFAT reporter cells as part of the TCR/CD3 complex; also called hCD3; CD3 epsilon
# T3 sequence (P07766 23-207 limits assumed): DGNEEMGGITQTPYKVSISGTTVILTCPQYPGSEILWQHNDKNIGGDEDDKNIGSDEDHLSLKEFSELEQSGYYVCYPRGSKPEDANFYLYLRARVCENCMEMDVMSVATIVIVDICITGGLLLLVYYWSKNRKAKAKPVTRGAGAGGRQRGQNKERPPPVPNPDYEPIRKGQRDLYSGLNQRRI
# Method: as §1, §2
# human GPRC5D [4] = target: T2, human GPRC5D; assay: flow cytometry on RPMI-8226 cells, assay replicate 2
# Method: as §3, §4
# human GPRC5D [5] = target: T2, human GPRC5D; assay: cell-based or functional assay
# human GPRC5D [6] = target: T2, human GPRC5D; assay: flow cytometry on NCI-H929 cells, assay replicate 2
# Method: as §3, §4
# human GPRC5D [7] = target: T2, human GPRC5D; assay: cell-based or functional assay; remark: listed apart in the source
# human GPRC5D [8] = target: T2, human GPRC5D; assay: flow cytometry on NCI-H929 cells, assay replicate 3
# Method: as §3, §4
# human GPRC5D [9] = target: T2, human GPRC5D; assay: cell-based or functional assay; remark: listed apart in the source
# human GPRC5D [10] = target: T2, human GPRC5D; assay: flow cytometry on RPMI-8226 cells, assay replicate 1
# Method: as §3, §4
# human GPRC5D [11] = target: T2, human GPRC5D; assay: flow cytometry on RPMI-8226 cells, assay replicate 3
# Method: as §3, §4
# human GPRC5D [12] = target: T2, human GPRC5D; assay: flow cytometry on NCI-H929 cells, assay replicate 1
# Method: as §3, §4
# human GPRC5D [13] = target: T2, human GPRC5D; assay: flow cytometry on OPM-2 cells, assay replicate 1
# Method: as §3, §4
# human GPRC5D [14] = target: T2, human GPRC5D; assay: cell-based or functional assay; remark: listed apart in the source
# BCMA [15] = target: T1, BCMA; assay: cell-based or functional assay
# BCMA [16] = target: T1, BCMA; assay: cell-based or functional assay; remark: listed apart in the source
# BCMA [17] = target: T1, BCMA; assay: cell-based or functional assay; remark: listed apart in the source
# BCMA [18] = target: T1, BCMA; assay: cell-based or functional assay; remark: listed apart in the source
binder,measurement,setting,value
B1,EC50,human GPRC5D [1],1.15 nM
same,EC50,human GPRC5D [2],54.2 nM
same,EC50,human GPRC5D [3],75.5 nM
same,EC50,human CD3,11.5 nM
same,EC50,human GPRC5D [4],20.4 nM
same,"EC50 (pM), TCB-mediated tumor cell lysis, AMO-1",human GPRC5D [5],8.3 pM
same,"EC50 (pM), TCB-mediated tumor cell lysis, IM-9",human GPRC5D [5],267 pM
same,"EC50 (pM), TCB-mediated tumor cell lysis, LP-1",human GPRC5D [5],7.99 pM
same,"EC50 (pM), TCB-mediated tumor cell lysis, NCI-H929",human GPRC5D [5],0.597 pM
same,EC50,human GPRC5D [6],~123 nM
same,"AUC, activation of Jurkat-NFAT reporter cells in presence of RPMI-8226 cells",human GPRC5D [7],572000
same,"EC50 (pM), activation of Jurkat-NFAT reporter cells in presence of RPMI-8226 cells",human GPRC5D [7],40 pM
same,EC50,human GPRC5D [8],~158 nM
same,"EC50 (pM), activation of autologous T-cells (CD69 on CD8 T cells) with a primary MM sample",human GPRC5D [9],14.8 pM
same,EC50,human GPRC5D [10],26.8 nM
same,EC50,human GPRC5D [11],55 nM
same,EC50,human GPRC5D [12],75.8 nM
same,EC50,human GPRC5D [13],34.5 nM
same,"AUC, TCB-mediated tumor cell lysis, AMO-1",human GPRC5D [14],8.01e+07
same,"AUC, TCB-mediated tumor cell lysis, IM-9",human GPRC5D [14],9.27e+06
same,"AUC, TCB-mediated tumor cell lysis, LP-1",human GPRC5D [14],1.54e+07
same,"AUC, TCB-mediated tumor cell lysis, NCI-H929",human GPRC5D [14],1.79e+07
B2,"EC50 in vitro killing assay, AMO-1",BCMA [15],0.518 nM
same,"EC50 in vitro killing assay, EJM",BCMA [15],0.132 nM
same,"EC50 in vitro killing assay, L363",BCMA [15],0.127 nM
same,"EC50 in vitro killing assay, MOLP-2",BCMA [15],0.032 nM
same,"EC50 in vitro killing assay, NCI-H929",BCMA [15],0.311 nM
same,"EC50 in vitro killing assay, OPM-2",BCMA [15],0.033 nM
same,"EC50 in vitro killing assay, RPMI",BCMA [15],0.011 nM
same,"EC50 (pM), TCB-mediated tumor cell lysis, AMO-1",BCMA [16],137 pM
same,"EC50 (pM), TCB-mediated tumor cell lysis, IM-9",BCMA [16],55.7 pM
same,"EC50 (pM), TCB-mediated tumor cell lysis, LP-1",BCMA [16],76.4 pM
same,"EC50 (pM), TCB-mediated tumor cell lysis, NCI-H929",BCMA [16],171 pM
same,"EC50 (pM), activation of autologous T-cells (CD69 on CD8 T cells) with a primary MM sample",BCMA [17],52.5 pM
same,"AUC, TCB-mediated tumor cell lysis, AMO-1",BCMA [18],4.73e+07
same,"AUC, TCB-mediated tumor cell lysis, IM-9",BCMA [18],1.1e+07
same,"AUC, TCB-mediated tumor cell lysis, LP-1",BCMA [18],1.11e+07
same,"AUC, TCB-mediated tumor cell lysis, NCI-H929",BCMA [18],1.07e+07
